Patent US20240270821A1, “GIP/GLP1/GCG TRI-RECEPTOR AGONISTS AND USES THEREOF” (priority 2023, published 2024)
Starred links: 1 amine or outer side, 2 acyl side, 3 side chain; linkers in the order of their positions; H or OH if unused. Non-standard residues stand in square brackets, D forms with d. Groups on a side chain read outwards from the residue. No end group written: not given here. *: point of attachment. C18 diacid = O=C(O)CCCCCCCCCCCCCCCCC(=O)*; γGlu = O=C(O)[C@H](CCC(=O)[*:2])N[*:1]; αMe4Pal = C[C@](N)(Cc1ccncc1)C(=O)O; 4Pal = N[C@@H](Cc1ccncc1)C(=O)O; αMeL = CC(C)C[C@](C)(N)C(=O)O; Orn = NCCC[C@H](N)C(=O)O; Aib = CC(C)(N)C(=O)O

T1: human GIP receptor (human) (UniProt P48546)
T1 sequence (looked up): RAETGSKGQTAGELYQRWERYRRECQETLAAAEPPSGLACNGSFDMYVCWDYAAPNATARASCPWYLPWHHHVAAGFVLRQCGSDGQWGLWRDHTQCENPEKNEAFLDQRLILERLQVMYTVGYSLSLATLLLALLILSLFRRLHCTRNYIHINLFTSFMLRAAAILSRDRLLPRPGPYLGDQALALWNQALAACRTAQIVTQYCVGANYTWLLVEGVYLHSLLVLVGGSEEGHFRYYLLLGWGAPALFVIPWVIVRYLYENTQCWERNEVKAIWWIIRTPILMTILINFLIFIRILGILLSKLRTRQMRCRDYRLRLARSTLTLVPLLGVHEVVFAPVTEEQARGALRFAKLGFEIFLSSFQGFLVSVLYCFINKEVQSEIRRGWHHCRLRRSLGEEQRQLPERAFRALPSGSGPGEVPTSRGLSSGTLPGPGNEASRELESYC


Columns and labels:
Experiment in all cases: cell-based or functional assay
[1] = biological target: T1, human GIP receptor (human)
hGLP-1R = hGLP-1R (Homo sapiens, UniProt P43220)
[2] = biological target: human glucagon receptor (human) (UniProt P47871)
Sequence of human glucagon receptor (human) (P47871 26-477): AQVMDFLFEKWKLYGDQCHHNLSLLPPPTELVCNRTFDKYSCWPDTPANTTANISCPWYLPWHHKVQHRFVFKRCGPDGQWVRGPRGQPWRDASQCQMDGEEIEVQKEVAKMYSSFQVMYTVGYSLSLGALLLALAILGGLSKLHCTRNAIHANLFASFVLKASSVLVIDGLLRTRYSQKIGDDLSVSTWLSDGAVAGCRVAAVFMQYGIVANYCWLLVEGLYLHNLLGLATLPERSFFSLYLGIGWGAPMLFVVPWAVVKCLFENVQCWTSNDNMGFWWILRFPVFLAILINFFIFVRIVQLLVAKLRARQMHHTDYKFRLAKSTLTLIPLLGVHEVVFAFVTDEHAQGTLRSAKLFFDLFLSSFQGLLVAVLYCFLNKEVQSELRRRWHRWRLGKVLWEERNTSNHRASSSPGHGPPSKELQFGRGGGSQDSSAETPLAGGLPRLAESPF

Sequence of hGLP-1R (P43220 24-463): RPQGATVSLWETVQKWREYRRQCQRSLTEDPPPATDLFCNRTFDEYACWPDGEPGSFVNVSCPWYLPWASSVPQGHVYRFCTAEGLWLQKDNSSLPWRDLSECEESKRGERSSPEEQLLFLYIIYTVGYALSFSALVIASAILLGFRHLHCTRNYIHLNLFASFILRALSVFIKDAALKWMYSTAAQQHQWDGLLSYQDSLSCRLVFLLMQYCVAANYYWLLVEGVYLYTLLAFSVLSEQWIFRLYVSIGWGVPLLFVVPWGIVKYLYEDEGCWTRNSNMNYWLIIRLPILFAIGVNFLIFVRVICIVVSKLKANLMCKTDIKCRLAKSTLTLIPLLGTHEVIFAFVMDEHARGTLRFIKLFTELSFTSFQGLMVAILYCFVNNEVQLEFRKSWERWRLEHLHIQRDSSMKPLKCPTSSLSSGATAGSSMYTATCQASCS

Row | Binder | Relative cAMP EC50 [1] | cAMP Rel EC50, nM (1% HSA) [1] | Relative cAMP EC50 (hGLP-1R) | cAMP Rel EC50, nM (1% HSA) (hGLP-1R) | Relative cAMP EC50 [2] | cAMP Rel EC50, nM (1% HSA) [2]
1 | YXQGTFTSDXSQXLDXKAQXAFIEYLIAGGPSSGEPPPSGSE (non-natural residues; lipidated Lys; C-terminal amide; synthetic construct; SITE 2: note = 2-Aminoisobutyric Acid; SITE 10: note = 3-(4-Pyridyl)-L-alanine; SITE 13: note = alpha-methyl-leucine; SITE 16: note = L-ornithine; SITE 17: note = Lysine is chemically modified through conjugation of the epsilon-amino group of the Lysine side chain with (gamma-Gl)) [Example 1008] | 0.14 nM | 15.2 nM | 1.09 nM | 126 nM | 7.47 nM | 1010 nM
2 | YXQGTFTSDXSQXLDKKAQXAFIEYLIEAGPSSGAPPPSGSE (Aib, 4Pal, αMeL, Me4Pal, D-Ala; acylated lysine; amide; synthetic construct; SITE 2: note = 2-Aminoisobutyric Acid; SITE 10: note = 3-(4-Pyridyl)-L-alanine; SITE 13: note = alpha-methyl-leucine; SITE 17: note = Lysine is chemically modified through conjugation of the epsilon-amino group of the Lysine side chain with (gamma-Glu)2-CO-(CH2)16-CO2H; SITE 20:) [Example 1025] | 0.18 nM | 31.5 nM | 2.45 nM | 352 nM | 3.22 nM | 625 nM
3 | YXQGTFTSDXSXXLDKKAQXAFIEYLIAGGPSSGAPPPSESE (Aib, 4Pal, Orn, αMeL, Me4Pal; acylated Lys; C-terminal amide; synthetic construct; SITE 2: note = 2-Aminoisobutyric Acid; SITE 10: note = 3-(4-Pyridyl)-L-alanine; SITE 12: note = L-ornithine; SITE 13: note = alpha-methyl-leucine; SITE 17: note = Lysine is chemically modified through conjugation of the epsilon-amino group of the Lysine side chain with (gamma-Gl)) [Example 1010] | 0.159 nM | 15.1 nM | 2.89 nM | 218 nM | 4.5 nM | 214 nM
4 | YXQGTFTSDXSXXLDXKAQXAFIEYLIAGGPSSGAPPPSESE (Aib, 4Pal, Orn, αMeL, Me4Pal; K (γGlu)2-C18 diacid; amide; synthetic construct; SITE 2: note = 2-Aminoisobutyric Acid; SITE 10: note = 3-(4-Pyridyl)-L-alanine; SITE 12: note = L-ornithine; SITE 13: note = alpha-methyl-leucine; SITE 16: note = L-ornithine; SITE 17: note = Lysine is chemically modified through conjugation of the epsilon-amino group of the Lys) [Example 1012] |  | 15.9 nM |  | 223 nM |  | 533 nM
5 | YXQGTFTSDXSQXLDXKAQXAFIEYLIEAGPSSGAPPPSGSE (not fully specified; acylated lysine (γGlu)2-C18 diacid; non-natural residues; C-terminal amide; synthetic construct; SITE 2: note = 2-Aminoisobutyric Acid; SITE 10: note = 3-(4-Pyridyl)-L-alanine; SITE 13: note = alpha-methyl-leucine; SITE 16: note = L-ornithine; SITE 17: note = Lysine is chemically modified through conjugation of the epsilon-amino group of the Lysine side chain with (gamma-Gl)) [Example 1023] |  | 26 nM |  | 230 nM |  | 856 nM
6 | YXQGTFTSDXSQXLDKKAQXAFIEYLIEAGPSSGAPPPSGSE (Aib, 4Pal, αMeL, Me4Pal; K acylated AEEA-(γGlu)2-C18 diacid; amide; synthetic construct; SITE 2: note = 2-Aminoisobutyric Acid; SITE 10: note = 3-(4-Pyridyl)-L-alanine; SITE 13: note = alpha-methyl-leucine; SITE 17: note = Lysine is chemically modified through conjugation of the epsilon-amino group of the Lysine side chain with (2-[2-(2-Amino-ethoxy)-ethoxy]-acetyl)) [Example 1024] |  | 32.5 nM |  | 330 nM |  | 760 nM
7 | YXQGTFTSDXSXXLDXKAQXAFIEYLIAGGPSSGAPPPSGSE (non-natural residues; Lys acylated C18 diacid; C-terminal amide; synthetic construct; SITE 2: note = 2-Aminoisobutyric Acid; SITE 10: note = 3-(4-Pyridyl)-L-alanine; SITE 12: note = L-ornithine; SITE 13: note = alpha-methyl-leucine; SITE 16: note = L-ornithine; SITE 17: note = Lysine is chemically modified through conjugation of the epsilon-amino group of the Lys) [Example 1011] |  | 13.5 nM |  | 148 nM |  | 459 nM
8 | YXQGTFTSDXSXXLDKKAQXAFIEYLIAGGPSSGAPPPSGSE (non-natural residues; lysine acylated with C18 diacid; C-terminal amide; synthetic construct; SITE 2: note = 2-Aminoisobutyric Acid; SITE 10: note = 3-(4-Pyridyl)-L-alanine; SITE 12: note = L-ornithine; SITE 13: note = alpha-methyl-leucine; SITE 17: note = Lysine is chemically modified through conjugation of the epsilon-amino group of the Lysine side chain with (gamma-Gl)) [Example 1009] | 0.13 nM | 9.72 nM | 2.1 nM | 174 nM | 4.21 nM | 268 nM
9 | YXQGTFTSDXSQXLDXKAQXAFIEYLIEAGPSSGAPPPSGSE (not fully specified; Aib, 4Pal, αMeL, Orn, Me4Pal, acylated K, C-terminal amide; synthetic construct; SITE 2: note = 2-Aminoisobutyric Acid; SITE 10: note = 3-(4-Pyridyl)-L-alanine; SITE 13: note = alpha-methyl-leucine; SITE 16: note = L-ornithine; SITE 17: note = Lysine is chemically modified through conjugation of the epsilon-amino group of the Lysine side chain with (2-[2-(2-) [Example 1022] |  | 27.9 nM |  | 203 nM |  | 586 nM
10 | Y[Aib]QGTFTSD[4Pal]SQ[αMeL]LD[Orn]KK([Glu-γGlu-C18 diacid])AQ[αMe4Pal]AFIEYLIAGGPSSGAPPPSGSEE-NH2 [Example 1032] |  | 21.9 nM |  | 148 nM |  | 900 nM
11 | YXQGTFTSDXSQXLDXKAQXQFIEYLLAGGPSSGAPPPSGSEE ((γGlu)2-C18 diacid on Lys; non-natural residues; amide; synthetic construct; SITE 2: note = 2-Aminoisobutyric Acid; SITE 10: note = 3-(4-Pyridyl)-L-alanine; SITE 13: note = alpha-methyl-leucine; SITE 16: note = L-ornithine; SITE 17: note = Lysine is chemically modified through conjugation of the epsilon-amino group of the Lysine side chain with (gamma-Gl)) [Example 1006] | 0.109 nM | 11.8 nM | 5.12 nM | 574 nM | 4.28 nM | 315 nM
12 | YXQGTFTSDXSQXLDKKAQXAFIEYLLAGGPSSGAPPPSGSEE (acylated lysine (γGlu)2-C18 diacid; non-natural residues; C-terminal amide; synthetic construct; SITE 2: note = 2-Aminoisobutyric Acid; SITE 10: note = 3-(4-Pyridyl)-L-alanine; SITE 13: note = alpha-methyl-leucine; SITE 17: note = Lysine is chemically modified through conjugation of the epsilon-amino group of the Lysine side chain with (gamma-Glu)2-CO-(CH2)16-CO2H; SITE 20:) [Example 1036] | 0.114 nM | 13 nM | 6.87 nM | 1080 nM | 2.05 nM | 353 nM
13 | YXQGTFTSDXSQXLDKKAQXAFIEYLLAGGPSSGAPPPSGSEE (AEEA-γGlu-C18 diacid on Lys; non-natural residues; amide; synthetic construct; SITE 2: note = 2-Aminoisobutyric Acid; SITE 10: note = 3-(4-Pyridyl)-L-alanine; SITE 13: note = alpha-methyl-leucine; SITE 17: note = Lysine is chemically modified through conjugation of the epsilon-amino group of the Lysine side chain with (2-[2-(2-Amino-ethoxy)-ethoxy]-acetyl)) [Example 1037] |  | 13.7 nM |  | 625 nM |  | 291 nM
14 | YXQGTFTSDXSQXLDKKAQXAFIEYLIAGGPSSGAPPPSGSEE (non-natural residues; AEEA-γGlu-C18 diacid on Lys; amide; synthetic construct; SITE 2: note = 2-Aminoisobutyric Acid; SITE 10: note = 3-(4-Pyridyl)-L-alanine; SITE 13: note = alpha-methyl-leucine; SITE 17: note = Lysine is chemically modified through conjugation of the epsilon-amino group of the Lysine side chain with (2-[2-(2-Amino-ethoxy)-ethoxy]-acetyl)) [Example 1029] |  | 22.3 nM |  | 170 nM |  | 511 nM
15 | YXQGTFTSDXSQXLDXKAQXAFIEYLIAGGPSSGAPPPSGSEE (non-natural residues; C18 diacid-(γ-Glu)2 acyl on Lys; C-terminal amide; synthetic construct; SITE 2: note = 2-Aminoisobutyric Acid; SITE 10: note = 3-(4-Pyridyl)-L-alanine; SITE 13: note = alpha-methyl-leucine; SITE 16: note = L-ornithine; SITE 17: note = Lysine is chemically modified through conjugation of the epsilon-amino group of the Lysine side chain with (gamma-Gl)) [Example 1031] |  | 17.3 nM |  | 152 nM |  | 1200 nM
